Measurements published in the nanobody polyreactivity screen of Harvey et al. (2022).

Experiment: yeast display, Sf9 membrane polyspecificity reagent, FACS + sequencing; frameworks hold sequencing errors
Outline: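 Using colony PCR, genes from sorted yeast display clones were amplified, then sequenced on MiSeq at 2 × 250 and filtered by CDR length. The clones had been stained with 10% biotinylated, detergent-solubilized Sf9 membrane reagent for 1 hour at 4 °C and sorted by FACS into low and high (top ~1%) gates on anti-HA and streptavidin fluorescence. Polyreactivity labels come from the gate of origin.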

Sequence	polyreactivity (PSR sort gate)
QVQLVESGGGLVQAGGSLRLSCAASGSTFNGNVMGWYRQAPGKERDFVAGISKSGGTTYYADSVKGRFTISRDNAKNTVYLQMNSLKPEDTAVYYCAARGRVRYYPQYYYWGQGTQVTVSS	high polyreactivity
QVQLVESGGGLVQAGGSLRLSCAASGSTFNGYAMGWYRQAPGKERELVADISRGDRTNYADSVKGRFTISRDNAKNTVYLQMKSLKREDTAVYYCAKDWLTDDPDKDPSVEYDYWGQGTQVTVSS	low polyreactivity
QVQLVESGGGLVQAGGSLRLSCAASGSTFNGYTMGCYRQAPGKEREFVATITFSDGSTYYADSVKGRFTISRDNAKNTVYLQMNSLKPEDTAVYYCNVDSPIGYDYWGQGTQVTVSS	low polyreactivity
QVQLVESGGGLVQAGGSLRLSCAASGSTFNHYTMGWYIQAPGKERELVAAISSRGGGTYYADSVKGRFTISRDNAKNTVYLQMNSLKPEDTAVYYCAALISSGIRHSRDYWGQGTQVTVSS	high polyreactivity
QVQLVESGGGLVQAGGSLRLSCAASGSTFNINAMGWYRQAPGKERELVAAISSRGGSTYYADSVKGRFTISRDNAKNTVYLQMNSLKPEDTAVYYCAASPRRVENAGRVRLYYWGQGTQVTVSS	high polyreactivity
QVQLVESGGGLVQAGGSLRLSCAASGSTFNIYAMGWYRQAPGKERELVAAISGNGDRTYYADSVKGRFTISRDNAKNTVYLQMNSLKPEDTAVYYCAAKYYGWGQGTQVTVSS	high polyreactivity
QVQLVESGGGLVQAGGSLRLSCAASGSTFNIYVMGWYRQAPGKERELVAAISTSGRTYYADSVKGRFTISRDNAKNTVYLQMNSLKPEDTAVYYCNAGYWVRKYYHGGYWGQGTQVTVSS	high polyreactivity
QVQLVESGGGLVQAGGSLRLSCAASGSTFNKNAMGWYRQAPGNERELVAVISRSGGSTHYADSVKGRFTISRDNAKNTVYLQMNSLKPEDTAVYYCATPFSYRRRTSASPYLYDYWGQGTQVTVSS	high polyreactivity
QVQLVESGGGLVQAGGSLRLSCAASGSTFNKYAMVWYRQAPGKERELVAAITGSGGRTYYADSVKGRFTISRDTAKNTVYLQMNSLKPEHTAVYYCNAGITHGYDYWGQGTQVSVSS	high polyreactivity
QVQLVESGGGLVQAGGSLRLSCAASGSTFNLYAIGWYRQAPGKEREFVAAIRGRGGNTYADSVKRRFTISRDNAKNTVYLQMNSLKPEDTAVYYCAAPLLRDLRSPYSYKYWGQGTQVTVSS	low polyreactivity
QVQLVESGGGLVQAGGSLRLSCAASGSTFNPYAMGWYRQAPGKERELVAAINSRGGSTYYADSVKGRFTISRDNAKNTVYLQMNSLKPEDSAVYYCAARTRRRTSAYEYWGQGTQVTVSS	high polyreactivity
QVQLVESGGGLVQAGGSLRLSCAASGSTFNQYDMGWYRQAPGKERELVAAITWSGTSTYYADSVKGRFTISRDNAKNTVYLQMNSLTPEDTAVYYCAADDPFHSSCWTYRYGYWGQGTQVTVSS	low polyreactivity
QVQLVESGGGLVQAGGSLRLSCAASGSTFNRNAMGWYRQAPGKERDLVAAISWRGDTTSYADSVKGRSTISRDNAKNTFYLQMNSLNPEDTAVYYCATAHDYAFYRYWYVPSEYNYWGQGTQVTVSS	low polyreactivity
QVQLVESGGGLVQAGGSLRLSCAASGSTFNRYAMGWYRQAPGKARELVATNNSGTSTNYADSVKGRFTISRDNAKNTVYLQKNSLKPEDTAVYYCAKTFRRSVGGYGYEYWGQGTQVTVSS	low polyreactivity
QVQLVESGGGLVQAGGSLRLSCAASGSTFNSNVMGWYRQAPGKERELVAAISRSGGNTYYADSVKGRFTISRDNAKNTVYLQMNSLKPEDTAVYYCNKAGRYPYDYWGQGTQVTVSS	high polyreactivity
QVQLVESGGGLVQAGGSLRLSCAASGSTFNSYAMGWYRQAPGKERELVAAISRSGGRTYYADSVKGRFTISRDNAKNNVYLQMSSMKPEDTAVYYCAAVHNANRGYPFEYWGQGTQVTVSS	high polyreactivity
QVQLVESGGGLVQAGGSLRLSCAASGSTFNVNAMGWYRQSPGKERELVAAITSSGGSTNYADSVKGRFTFSRDNAKYTVYLQMNSLNPEDTAFYYCAAYAIYFSRLNLGYDYWGQGTQVTVSS	low polyreactivity
QVQLVESGGGLVQAGGSLRLSCAASGSTFNVYAMGWYRQAPGKERELVARISWSGGNTYYADSVKGRFTISRDNAKNTVYLQMNSLKPEDTAVYYCATKGYTGYAYRYGYWGQGTQVTVSS	high polyreactivity
QVQLVESGGGLVQAGGSLRLSCAASGSTFNYNAMGWYRQAPGKERELVAAITYSGSSTYYADSVKGRFTISRDNAKNTVYLQMNSLKPEDTAVYYCAAPPYNRPGYGYDYWGQGTQVTVSS	high polyreactivity
QVQLVESGGGLVQAGGSLRLSCAASGSTFPANAMGWYRQAPGKERELVAAISSVGSTNYADSVRGRFTLSRDNAKNTVYLQMNSLKPEDTAVYYCATQPTWYTVGDLDYWGQGTQVTVSS	low polyreactivity
QVQLVESGGGLVQAGGSLRLSCAASGSTFPDNAMGWYRQAPGKERELVAAISFSSGSTYYADSVKGRFTISRDNAKNTVYLQMNSLKPEDTAVYYCAADSYPAYLGFVGFDYWGQGTQVTVSS	low polyreactivity

Sequence	polyreactivity (PSR sort gate)
QVQLVESGGGLVQAGGSLRLSCAASGSTFPDNAMGWYRQAPGKERELVAAISFSSGSTYYADSVKGRFTISRDNAKNTVYLQMNSLKPEDTAVYYCAVANPSPYEWIAYYYWGQGTQVTVSS	low polyreactivity
QVQLVESGGGLVQAGGSLRLSCAASGSTFPFYAMGWYRQAPGKEREFVAVISSSGGSTYYADSVKGRFTISRDNAKNTVYLQMNSLKPEDTAVYYCARSYPGRWYDYWGQGTQVTVSS	high polyreactivity
QVQLVESGGGLVQAGGSLRLSCAASGSTFPGNTMGSYRQAPGKERELVAAITWNGGSTYYADSVKGRFTISRDNAKNNVYLQMNRLKPEDTAVYYCATRARVTYYYWGLGTQVTVSS	high polyreactivity
QVQLVESGGGLVQAGGSLRLSCAASGSTFPHNAMGWYRQAPGKERELVAAISVGGGSSHYADSVKGRFTISRDNAKNNVYLQMNSLKPEDTAVYYCAKDYAYQYSFVTYDYWGQGTQVTVSS	low polyreactivity
QVQLVESGGGLVQAGGSLRLSCAASGSTFPHYAMGWYRQAPGKERELVAAISVRGGRTYYADSVKGRFTISRDNAKNTVYLQMNSLKPEDTAVYYCNKYYYFTKYGYWGQGTQVTVSS	high polyreactivity
QVQLVESGGGLVQAGGSLRLSCAASGSTFPHYAMGWYRQAPGKERELVAAISWSGSSTYYADSVKGRFTISRDNAKNTVYLQMNSLKPEDTAVYYCNKLPRRAPQFTYDYWGQGTLVTVSS	high polyreactivity
QVQLVESGGGLVQAGGSLRLSCAASGSTFPHYAMGWYRQAPGKERELVAAISWSGSSTYYADSVKGRFTISRDNAKNTVYLQMNSLKPEDTAVYYCNKLPRRAPQFTYDYWGQGTQVTVSS	high polyreactivity
QVQLVESGGGLVQAGGSLRLSCAASGSTFPIYAMGWYRQAPGKERELVAAITWRGGSRTYYADSVKGRFTISRDNAKNTVYLQMNSLKPEDTAVYYCAAEYQWPLYGYWGQGTQVTVSS	low polyreactivity
QVQLVESGGGLVQAGGSLRLSCAASGSTFPKNAKGWYRPAPGKERELVAAINTGGSTYYADSVKGRFTISRDNAKNTVYLQMNSLKPEDTAVYYCAARDNYHRDVGHPYDYWGQGTQVTVSS	low polyreactivity
QVQLVESGGGLVQAGGSLRLSCAASGSTFPKYAMGWYRQAPGKERELVAGISWRGGRTYYADSVKGRFTISRDNAKNTVYLQMNSLKPEDTAVYYCATDYYAFNQGEVKWYDYWGQGTQVSVSS	high polyreactivity
QVQLVESGGGLVQAGGSLRLSCAASGSTFPKYAMGWYRQAPGKERELVASISVTTGSTYYADSVKGRFTISRDNAKITVYLQMNSLKPEDTAVYYCAKYRPGIPYYQYGSWGQGTQVTVSS	high polyreactivity
QVQLVESGGGLVQAGGSLRLSCAASGSTFPLYAMGWYRQAPGKERELVAAITGGGGRTYYADSVKGRFTISRDNAKNTVYLQMNSLKPEDTAVYYCATDSFGYDWYWGQGTQVTVSS	low polyreactivity
QVQLVESGGGLVQAGGSLRLSCAASGSTFPLYAMGWYRQAPGKERELVAAITSGGGNTYYADSVKGRFTISRDNAKNTVYLQMNSLKPEDTAVYYCAAVGGYKSYYSYEYDYWGQGTQVTVSS	low polyreactivity
QVQLVESGGGLVQAGGSLRLSCAASGSTFPLYTRGWYRQAPGKERELVAAISGGSTTYYADSVKGRFTISRDNAKNTVYLQMNSLKPEDTAVYYCAAYAYTSRWYGFDYWGQGTQVTVSS	low polyreactivity
QVQLVESGGGLVQAGGSLRLSCAASGSTFPPNAMGWSRQAPGKERELVAAISERGGSTYYADSVKGRFTISRDNAKNTVYLQMNSLKPEDTAVYYCAVDYYYLMYWGQGTQVTVSS	low polyreactivity
QVQLVESGGGLVQAGGSLRLSCAASGSTFPPNTMGWYRQAPGKERELVAAITQRGGNTYYADSVKGRFTISRDNAKNTVYLQMNSLKPEDTAVYYCATRYRYKGYYGQYEYWGQGTQVTVSS	high polyreactivity
QVQLVESGGGLVQAGGSLRLSCAASGSTFPRNDMGWYRQAPGNERELVAAISRGGSTNYADSVKGRFTISRDNANNTVYLQMNSMKPEDTAVYYCAAQIFESAYGMDYWGQGTQVTVSS	low polyreactivity
QVQLVESGGGLVQAGGSLRLSCAASGSTFPRYAMAWYRQAPGKERELVAAISSSGRTYYADSVKGRFTISRDNAKNTFYLQMNSLKPEDTAVYYCNAPVARGEASYYWGQGTQVTVSS	high polyreactivity
QVQLVESGGGLVQAGGSLRLSCAASGSTFPRYAMGWYRQAPGKEREFVAAISRRGGSTYYADSVKGRFTISRDNAKNTVYLQMNSLKPEDTAVYYCAKYLPTRVWGTGRFDYWGQGTQVTVSS	high polyreactivity
QVQLVESGGGLVQAGGSLRLSCAASGSTFPRYAMGWYRQAPGKERELVAAISGRGGSTYYADSVKGRFTISRDYAKNTVYLQMNSLKPEDTAVYYCNAYRRYYTMYYWGQGTQVTVSS	high polyreactivity
